{"source": "paper PMC4197964", "about": "(Genes & Development, 2014)", "binders": {"B1": {"name": "GST-Psh1, full-length [FL (1-406)] (enzyme, budding yeast, UniProt Q12161 1-406, looked up)", "chain": "MGDELHNRLLHQNDGTKDAILYKIIESLVCSICHDYMFVPMMTPCGHNYCYGCLNTWFASNTQKELACPQCRSDITTIPALNTTLQQYLSFILEKLRDQNDESFKKLLTTKTKEENDYKNDKEKDTLFDKVFKNSALAVADDSDDGITRCSNCHWELDPDEVEDGNVCPHCNARIRNYAGGRDEFDEEEYSEGELDEIRESMRRRRENRFASTNPFANRDDVSSEDDDSSEEEPMREHIPLGRWARSHNRSIAVDAVDDEDDEEEDEEEEEEMDSDLKDFIEDDEDDEDEDGSRRNLVLSALKNRHVIITDDEEEEQRRHATEEEDRDSDFYEHNDDGFVSGDSLDEDQKEVTRIQSSSDSEDRSLSYSGSSDVKDNNDDNTEELDDPQPKRQKRFRVVLGDSDDE"}}, "molecular_target": "MBP-Spt16 (budding yeast, UniProt P32558 1-1035)", "sequence (P32558 whole entry)": "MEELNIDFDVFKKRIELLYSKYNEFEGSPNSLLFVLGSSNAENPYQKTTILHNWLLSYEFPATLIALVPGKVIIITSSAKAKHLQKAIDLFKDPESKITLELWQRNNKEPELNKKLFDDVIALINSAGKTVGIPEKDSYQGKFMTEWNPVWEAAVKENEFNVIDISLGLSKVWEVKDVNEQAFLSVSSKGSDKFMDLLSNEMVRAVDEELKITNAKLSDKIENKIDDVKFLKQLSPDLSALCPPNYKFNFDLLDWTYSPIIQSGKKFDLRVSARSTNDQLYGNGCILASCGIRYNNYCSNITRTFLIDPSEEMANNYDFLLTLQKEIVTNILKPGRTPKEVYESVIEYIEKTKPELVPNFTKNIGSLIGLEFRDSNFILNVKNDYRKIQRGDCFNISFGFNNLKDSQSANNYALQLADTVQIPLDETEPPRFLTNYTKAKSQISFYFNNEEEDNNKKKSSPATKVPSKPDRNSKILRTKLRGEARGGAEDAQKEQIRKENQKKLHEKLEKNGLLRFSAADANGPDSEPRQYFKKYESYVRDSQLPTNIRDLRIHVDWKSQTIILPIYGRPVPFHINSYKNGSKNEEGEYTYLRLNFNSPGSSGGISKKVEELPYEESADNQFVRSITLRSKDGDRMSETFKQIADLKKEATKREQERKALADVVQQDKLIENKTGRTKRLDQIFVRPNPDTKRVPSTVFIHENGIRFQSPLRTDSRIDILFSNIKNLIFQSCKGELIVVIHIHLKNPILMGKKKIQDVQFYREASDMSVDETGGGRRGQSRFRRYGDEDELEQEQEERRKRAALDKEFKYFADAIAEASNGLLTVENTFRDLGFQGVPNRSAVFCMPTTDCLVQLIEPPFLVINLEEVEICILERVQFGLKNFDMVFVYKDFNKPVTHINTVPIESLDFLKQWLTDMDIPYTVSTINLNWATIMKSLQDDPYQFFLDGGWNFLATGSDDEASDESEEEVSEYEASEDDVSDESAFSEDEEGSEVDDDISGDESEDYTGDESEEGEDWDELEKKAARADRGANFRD", "assay": "pull-down", "data": [{"binder": "B1", "values": [{"measurement": "binding result", "result": "binds"}]}]}
